Laboratory results reported in US9664683B2, “Profiling of signal pathway proteins to determine therapeutic efficacy” (Nestec S.A., priority 2011, dated 2017).

Experiments:
PI3K pathway = test: CEER-FNA pathway profiling of breast cancer tumor samples exposed to anti-cancer therapy; format: cell-based; conditions: breast cancer tumor samples exposed to AKT inhibitor and/or Lapatinib; FIG. 17
Excerpt: The breast cancer tumor samples were exposed to AKT inhibitor and/or Lapatinib (a tyrosine kinase inhibitor). This example illustrates that cancer cells can adapt to therapeutic pressure due to drug therapy. […] FIG. 17 illustrates CEER-FNA analysis of biomarkers in pathway profiling of breast cancer cell samples after treatment with an AKT inhibitor, Lapatinib (a tyrosine kinase inhibitor) or combination therapy.

[1] = tested on: HER2 heterodimers and PI3K; test: Proximity based dimer/complex assay in MCF7 cells; format: cell-based, human; conditions: response to ligand, FIG. 20
Excerpt: FIG. 1A-C show one embodiment of the foregoing proximity assay for detection of dimerization of receptor tyrosine kinases. […] A first detection antibody 115 is then used to bind to a different portion (e.g., epitope) on HER2. A second detection 120 antibody is thereafter used to bind to the dimerized second receptor tyrosine 1kinase e.g., HER3 125. The first detection antibody comprises one or a plurality of first activation state-independent antibodies specific for one member of the dimer, whereas a second detection antibody or a plurality of second detection antibodies is specific for the other member of the dimer. The first detection antibody is labeled with a facilitating moiety e.g., glucose oxidase (GO) and the second detection antibody is labeled with a first member of a signal amplification pair e.g., horseradish peroxidase (HRP). The facilitating moiety generates an oxidizing agent e.g., hydrogen peroxide, which channels to and reacts with the first member of the signal amplification pair. Thereafter, the plurality of detectable captured analytes are incubated with a second member of the signal amplification pair e.g., tyramide or tyramide biotin to generate an amplified signal, which is then detected. […]

PI3K complex = test: Proximity (CEER) assay detecting PI3K complexes in T47D cells; format: cell-based, human; conditions: T47D cells treated with heregulin (HRG), compared to non-treated cells; FIG. 4C
Excerpt: FIG. 4C illustrates the detection of activated PI3K complexes in T47D cells (human ductal breast epithelial tumor cell line) treated with heregulin (HRG), compared to non-treated cells. In some embodiments, the detection of PI3K complexes will also correlate with the detection of activated (e.g., phosphorylated) PI3K. […]

Compound	levels of phosphorylated pathway proteins after treatment (PI3K pathway)	activation of HER2 heterodimers and PI3K [1]	detection of PI3K complexes (PI3K complex)
CS(=O)(=O)CCNCc1ccc(-c2ccc3ncnc(Nc4ccc(OCc5cccc(F)c5)c(Cl)c4)c3c2)o1 [Lapatinib, lapatinib]	Higher levels of phosphorylated PI3K, AKT, ERK		
EGF: pathway activating ligand used to stimulate MCF7 cells		activation of HER2 heterodimers and PI3K	
heregulin [HRG]		activation of HER2 heterodimers and PI3K	PI3K complexes were detected
